Data on four molecules can be found in paper PMC4565748 (Molecular immunology, 2015).

The target in test [1] is T1, complement C3b, site-specifically biotinylated (human, UniProt P01024 23-667; P01024 749-1663, biotin, site-specific (site not given)). The test can be described thus: SPR. In general terms: In SPR one partner is held on a chip, and binding of the other changes the refractive index at the surface.
The target of test [2] is T1, complement C3b, site-specifically …. In words: SPR. The source holds these as a separate data set.
For test [3] the target is unchanged. In words: AlphaScreen or HTRF. For orientation: Alpha assays give light when donor and acceptor beads are brought close together.

B1: staphylococcal complement inhibitor SCIN-A, full-length wild type (natural protein)
chain: STSLPTSNEYQNEKLANELKSLLDELNVNELATGSLNTYYKRTIKISGQKAMYALKSKDFKKMSEAKYQLQKIYNEIDEALKSKY
Take B1: in test [1], binding was put at a Kd of 0.096 ± 0.016 µM, the off-rate constant (koff) (usually the rate constant with which the complex falls apart) amounted to 0.051 s⁻¹ and the on-rate (kon) (commonly the second-order rate constant of association) was 550000 M⁻¹ s⁻¹. In addition, the equilibrium dissociation constant (Kd) (usually the free concentration of one partner at which half of the binding sites on the other are occupied at equilibrium, for simple one-to-one binding) in test [2] was found to be 0.145 ± 0.056 µM.

B2: SCIN-A.Q49A (natural protein)
chain: STSLPTSNEYQNEKLANELKSLLDELNVNELATGSLNTYYKRTIKISGAKAMYALKSKDFKKMSEAKYQLQKIYNEIDEALKSKY
In test [1], B2 displayed a dissociation constant Kd of 0.069 ± 0.0083 µM, a koff of 0.051 s⁻¹ and an on-rate (kon) of 760000 M⁻¹ s⁻¹. Further, in test [3], the Kd was 0.12 µM. Further, in test [2], the Kd stood at 0.22 ± 0.098 µM.

B3: SCIN-A.R42A.Q49A (natural protein)
chain: STSLPTSNEYQNEKLANELKSLLDELNVNELATGSLNTYYKATIKISGAKAMYALKSKDFKKMSEAKYQLQKIYNEIDEALKSKY
Take B3: the Kd was 14 µM in test [3] and 15 µM in test [2].

B4: SCIN-A.R42A (natural protein)
chain: STSLPTSNEYQNEKLANELKSLLDELNVNELATGSLNTYYKATIKISGQKAMYALKSKDFKKMSEAKYQLQKIYNEIDEALKSKY
In test [1], B4 returned a Kd of 6.6 ± 0.62 µM, a dissociation rate constant (koff) of 0.58 s⁻¹ and a kon of 89000 M⁻¹ s⁻¹. The same molecule yielded an equilibrium dissociation constant (Kd) in test [3] of 14 µM. The molecule also displayed a Kd in test [2] of 8.5 ± 0.12 µM.
